Measured values published in patent US5536648, “Amplified DNA assay using a double stranded DNA binding protein” (Amrad Corporation Limited).

B1: HIV p24 c-d PCR product with GCN4 site (primer d shown) (dsDNA)
DNA 1: AAGTGACTCAAGTGACTCAATCCTTGTCTTATGTCCAGAA
DNA 2: TTCTGGACATAAGACAAGGATTGAGTCACTTGAGTCACTT
B2: HIV p24 c-d1 (figure: d2) PCR product with GCN4 site (primer d1 shown) (dsDNA)
DNA 1: AGCGGATGACTCATTTTTTTTTCCTTGTCTTATGTCCAGAA
DNA 2: TTCTGGACATAAGACAAGGAAAAAAAAATGAGTCATCCGCT

Legend:
[1] = biological target: T1, GST-GCN4 6.8 (full-length GCN4, 281 aa) (Saccharomyces cerevisiae, UniProt P03069 P03069:1-281); experiment: microtitre plate capture, MTPBS-Tween, 20 C; binds with 1 ug/ml carrier human DNA; details: tags: N-terminal GST (Schistosoma japonicum), pGEX-2T, E. coli; chain copies: 2
T1 sequence (P03069 whole entry, one chain of several): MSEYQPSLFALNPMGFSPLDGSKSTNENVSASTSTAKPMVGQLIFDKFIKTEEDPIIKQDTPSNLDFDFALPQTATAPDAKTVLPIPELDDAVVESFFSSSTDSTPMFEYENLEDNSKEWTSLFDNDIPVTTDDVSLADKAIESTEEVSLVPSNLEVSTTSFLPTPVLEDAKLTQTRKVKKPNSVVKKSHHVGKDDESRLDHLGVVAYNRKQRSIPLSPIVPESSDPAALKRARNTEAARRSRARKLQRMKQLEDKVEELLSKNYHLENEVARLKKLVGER

[2] = biological target: T1, GST-GCN4 6.8 (full-length GCN4, 281 aa); experiment: microtitre plate capture; binds with 1 ug/ml carrier human DNA; oligo called d2 in results, d1 in methods; details: tags: N-terminal GST (Schistosoma japonicum), pGEX-2T, E. coli; chain copies: 2

Row | Binder | binding result [1] | binding result [2]
1 | B1 | binds | 
2 | B2 |  | binds
